# Laboratory results taken from patent US11834472B2, “Anti-IL-22 antibodies, antibody fragments, their immunoconjugates and uses thereof” (BioAtla, Inc., priority 2018, dated 2023).
# B1: CPS02: mutant anti-IL-22 antibody binding human and mouse IL-22; light chain LC-06, heavy chain HC-08 (antibody, V domains shown)
# VH: QVQLVQSGAEVKKPGASVKVSCKASGYIFRSYWIHWIRQPPGKGLEWIGRIYPGTGRTYYNEKFKGRVTISADKSISTAYLQWSSLKASDTAMYYCARSYDSSVAYWGQGTLVTVSS
# VL: AIQLTQSPSSLSASVGDRVTITCSASSSVSYMHWYLQKPGQSPQLLIYKTRKLASGVPSRFSGSGSGTDFTFTISSLEAEDAATYYCQQWSSNPYITFGQGTKVEIKR
# Test system: imiquimod (IMQ) induced psoriasis
# Assay type: in vivo
# Text: Two anti-IL-22 antibodies of the present invention, CPS02 and CPS09, were used for the treatment of imiquimod (IMQ) induced psoriasis in mice (FIG. 12). The mice were male BALB/c mice, which were an albino, laboratory-bred strain of the house mouse. A total of 70 mice, at a body weight of 18-20 g, were acclimated for 7 days before induction of psoriasis.
# The 70 mice were randomized into 7 groups (10 mice in each group). One group (group 1) was used as a negative control to which no imiquimod was administered to the mice, which was instead replaced with Vaseline. […] The other 6 groups (groups 2-7) were dosed topically with imiquimod at a dosage of 82.5 mg/mouse (5% cream) once daily (qd) for 8 consecutive days from day 0 to day 7 (20 mg for the left ear, 62.5 mg for the shaved back) to induce psoriasis. The back skin was shaved to expose an area of 2×3 cm^2. For the Vaseline control group, the Vaseline was also applied at 82.5 mg/mouse once daily (qd) for 8 consecutive days (20 mg for left ear, 62.5 mg for the shaved back) from day 0 to day 7.
# Group 2 was a group of psoriasis-induced mice that were untreated to serve as a control group. The treatment period completely overlapped with the imiquimod application period (day 0 to day 7). For group 2, the mice received both imiquimod and […] on each day of the 8-day period (day 0 to day 7). For the groups that received intravenous (I.V.) injection, the imiquimod was applied within one hour after the I.V. injection on days 0 and 3.
# Group 3 was treated with the steroid dexamethasone, which is a current therapeutic treatment used for psoriasis. The dexamethasone was topically applied twice a day (BID) for 8 days. Group 4 was treated with phosphate-buffered saline (PBS), which served as a negative control. Group 5 was treated with an isotype control antibody that also served as a negative control. Groups 6-7 were treated with the anti-IL22 antibodies CPS02 (A) and CPS09 (B), respectively. The treatments for Groups 4-7 were administered by a single intravenous (I.V.) injection on each of days 0 and 3. 3 mice in group 6 died on day 0 and 2 died on day 1. On day 3, the I.V. injection dosage for this group was decreased to 10 mg/kg.
# During the 8 day treatment period, the ear thickness was measured on days 0, 3, 5 and 7. The body weight and various skin scores were recorded daily. Pictures of the psoriasis sites were taken on days 0, 3, 5 and 7. On days 1 and 4, about 60 μl blood was collected via retro-orbital bleeding over 24 hours and placed in BD Microtainer® tubes coated with dipotassium ethylenediaminetetraacetic acid (K2EDTA). Plasma was then collected (to get at least 20 μl plasma) and stored at −80° C.
# Skin scores for erythema, scales and thickness were measured daily according to an established grading system. The erythema, scales and thickness were scored independently on a scale of from 0 to 4: 0 means none, 1 means slight, 2 means moderate, 3 means marked, and 4 means very marked. The cumulative (total) skin score was also calculated.
# The effects of the treatments were analyzed statistically using two-way analysis of variance (ANOVA, Bonferroni post-tests) or one-way ANOVA analysis. For comparisons between the treatment groups and the control group, the p value is denoted in FIGS. 13-18 as (*) if less than 0.05, (**) if less than 0.01, or (***) if less than 0.001.
# [1] = group 6 (10 mice), 20 mg/kg I.V. on day 0
molecule,measurement,setting,value
B1,reduction in body weight of the treated mice,"IMQ psoriasis mice, days 0-7, in comparison to dexamethasone / PBS (FIG. 13)",less reduction in body weight
same,mice died on day 0,[1],3 mice
same,mice died on day 1,[1],2 mice
same,ear skin thickness,"vs negative controls (isotype matched antibody, PBS, vehicle) (FIG. 14)",less
same,skin erythema score,"vs negative controls (isotype matched antibody, PBS, vehicle) (FIG. 15)",lower
same,skin scale score,"vs negative controls (isotype matched antibody, PBS, vehicle) (FIG. 16)",lower
same,skin thickness,"vs negative controls (isotype matched antibody, PBS, vehicle) (FIG. 17)",lower
same,total skin score,"vs negative controls (isotype matched antibody, PBS, vehicle) (FIG. 18)",lower
